Data taken from publication PMC10397247.
Read-outs that look alike come from different tables or passages of the source.

T1: 4H566-AA
T1 chain: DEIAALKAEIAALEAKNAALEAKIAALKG

T2: Q7-AA
T2 chain: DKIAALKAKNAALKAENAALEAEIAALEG

T3: 4H993-AA
T3 chain: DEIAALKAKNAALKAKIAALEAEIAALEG

T4: 4H48-AA
T4 chain: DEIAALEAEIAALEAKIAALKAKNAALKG

T5: 4H3427-AA
T5 chain: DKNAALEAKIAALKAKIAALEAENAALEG

T6: 4H3112-AA
T6 chain: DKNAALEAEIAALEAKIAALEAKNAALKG

T7: 4H605-AA
T7 chain: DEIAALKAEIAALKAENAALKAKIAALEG

T8: 4H717-AA
T8 chain: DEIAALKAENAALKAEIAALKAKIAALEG

T9: 4H3627-AA
T9 chain: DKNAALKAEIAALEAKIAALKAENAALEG

T10: 4H2944-AA
T10 chain: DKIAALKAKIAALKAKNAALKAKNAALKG

T11: 4H2949-AA
T11 chain: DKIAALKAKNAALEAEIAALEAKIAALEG

T12: 4H317-AA
T12 chain: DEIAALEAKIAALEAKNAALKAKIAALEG

T13: 4H3921-AA
T13 chain: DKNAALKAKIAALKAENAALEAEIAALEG

T14: 4H454-AA
T14 chain: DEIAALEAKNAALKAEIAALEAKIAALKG

T15: 4H3655-AA
T15 chain: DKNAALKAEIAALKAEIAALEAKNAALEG

T16: 4H794-AA
T16 chain: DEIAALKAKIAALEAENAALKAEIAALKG

T17: Q8-AA
T17 chain: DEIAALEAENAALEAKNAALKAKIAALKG

T18: 4H678-AA
T18 chain: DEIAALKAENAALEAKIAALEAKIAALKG

T19: 4H3606-AA
T19 chain: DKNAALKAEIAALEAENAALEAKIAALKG

T20: 4H3343-AA
T20 chain: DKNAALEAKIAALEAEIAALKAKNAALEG

T21: 4H3718-AA
T21 chain: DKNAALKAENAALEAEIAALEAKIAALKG

T22: 4H335-AA
T22 chain: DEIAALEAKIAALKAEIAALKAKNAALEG

T23: 4H881-AA
T23 chain: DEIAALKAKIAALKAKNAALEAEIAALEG

T24: 4H429-AA
T24 chain: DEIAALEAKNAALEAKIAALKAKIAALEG

T25: 4H780-AA
T25 chain: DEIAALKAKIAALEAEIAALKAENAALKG

T26: Q3-AA
T26 chain: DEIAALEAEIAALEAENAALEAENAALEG

T27: 4H906-AA
T27 chain: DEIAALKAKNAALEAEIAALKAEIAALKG

T28: 4H3844-AA
T28 chain: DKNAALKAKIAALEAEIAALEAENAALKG

T29: 4H342-AA
T29 chain: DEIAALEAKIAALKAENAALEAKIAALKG

T30: 4H982-AA
T30 chain: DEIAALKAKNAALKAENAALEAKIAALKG

T31: 4H697-AA
T31 chain: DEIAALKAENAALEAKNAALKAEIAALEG

T32: 4H3865-AA
T32 chain: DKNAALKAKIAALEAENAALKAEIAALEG

T33: 4H384-AA
T33 chain: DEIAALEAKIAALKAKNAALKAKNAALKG


Tests used:
Assay in all cases: two-hybrid library CCmax;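 further: natural log of median RNA to DNA barcode read ratio; higher means stronger binding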
[1] = molecular target: T1, 4H566-AA; conditions: mean of both orientations
[2] = molecular target: T2, Q7-AA; conditions: mean of both orientations
[3] = molecular target: T3, 4H993-AA; conditions: mean of both orientations
[4] = molecular target: T4, 4H48-AA
[5] = molecular target: T5, 4H3427-AA; conditions: mean of both orientations
[6] = molecular target: T6, 4H3112-AA; conditions: mean of both orientations
[7] = molecular target: T7, 4H605-AA; conditions: mean of both orientations
[8] = molecular target: T8, 4H717-AA; conditions: mean of both orientations
[9] = molecular target: T9, 4H3627-AA
[10] = molecular target: T10, 4H2944-AA
[11] = molecular target: T11, 4H2949-AA; conditions: mean of both orientations
[12] = molecular target: T12, 4H317-AA; conditions: mean of both orientations
[13] = molecular target: T13, 4H3921-AA; conditions: mean of both orientations
[14] = molecular target: T14, 4H454-AA; conditions: mean of both orientations
[15] = molecular target: T15, 4H3655-AA; conditions: mean of both orientations
[16] = molecular target: T16, 4H794-AA; conditions: mean of both orientations
[17] = molecular target: T17, Q8-AA; conditions: mean of both orientations
[18] = molecular target: T18, 4H678-AA; conditions: mean of both orientations
[19] = molecular target: T19, 4H3606-AA; conditions: mean of both orientations
[20] = molecular target: T20, 4H3343-AA; conditions: mean of both orientations
[21] = molecular target: T21, 4H3718-AA
[22] = molecular target: T22, 4H335-AA; conditions: mean of both orientations
[23] = molecular target: T23, 4H881-AA; conditions: mean of both orientations
[24] = molecular target: T24, 4H429-AA; conditions: mean of both orientations
[25] = molecular target: T25, 4H780-AA; conditions: mean of both orientations
[26] = molecular target: T26, Q3-AA; conditions: mean of both orientations
[27] = molecular target: T27, 4H906-AA; conditions: mean of both orientations
[28] = molecular target: T28, 4H3844-AA; conditions: mean of both orientations
[29] = molecular target: T29, 4H342-AA; conditions: mean of both orientations
[30] = molecular target: T30, 4H982-AA; conditions: mean of both orientations
[31] = molecular target: T31, 4H697-AA; conditions: mean of both orientations
[32] = molecular target: T32, 4H3865-AA; conditions: mean of both orientations
[33] = molecular target: T33, 4H384-AA; conditions: mean of both orientations

Row | Binder | interaction score [1] | interaction score [2] | interaction score [3] | interaction score [7] | interaction score [8] | interaction score [13] | interaction score [14] | interaction score [15] | interaction score [16] | interaction score [17] | interaction score [18] | interaction score ([21]; mean of both orientations) | interaction score [23] | interaction score [24] | interaction score [25] | interaction score [26] | interaction score [27] | interaction score [28] | further results
1 | DKIAALKAKIAALKAKNAALKAKNAALKG [4H2944-AA] | 0.106 | -1.77 | -2.01 | -1.34 | -1.69 | -0.731 | -1.8 | -0.297 | -1.89 | -1.55 | -1.67 | -0.87 | -0.992 | -1.71 | -1.43 | 1.67 | -1.83 | 0.407 | interaction score [4]: -1.33; interaction score [5]: -0.0703; interaction score [6]: -0.15; interaction score ([9]; mean of both orientations): -0.579; interaction score [10]: -1.62; interaction score [11]: -1.55; interaction score [12]: -1.04; interaction score [19]: -0.0316; interaction score [20]: -1.17; interaction score [22]: -1.7; interaction score [29]: 1.12
2 | DKNAALKAENAALEAEIAALEAKIAALKG [4H3718-AA] | – | -0.973 | – | – | – | – | – | – | – | 1.05 | – | – | – | – | – | -1.46 | – | – | interaction score [30]: -1.15; interaction score [31]: -0.465; interaction score [21]: -0.586; interaction score [32]: -1.49; interaction score [33]: 0.145
3 | DKNAALKAEIAALEAKIAALKAENAALEG [4H3627-AA] | -0.771 | -1.97 | -1.08 | -1.4 | -1.79 | -1.63 | 0.554 | -0.0982 | -1.93 | -0.702 | -1.31 | -0.468 | -1.04 | -1.09 | -1 | -1.24 | -1.34 | 1.03 | interaction score ([4]; mean of both orientations): -0.478; interaction score [9]: 0.53
